Laboratory results taken from the supplement of paper PMC10567573.

B1: KRT18 (parent)
chain: KSQDLAKIMADIRAQYDELARKNR
B2: SCARA5 (parent)
chain: VTEDLRLKDWEHSIALRNISLAKG

Variants of: B1
Assay: protein stability index of a GFP-peptide fusion (GPS, HEK-293T) (PSI 1-6); higher = more stable
Settings: c terminus: a fixed tail appended
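Further: lentivirally expressed fusions sorted by FACS into six bins by GFP to DsRed ratio, PSI derived from sequencing read proportions per bin multiplied by bin number.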

Protein stability index, by site and new letter:
A6: R 2.54; D 2.8; C 2.66; T 2.94; K 2.28; L 2.65; F 2.17; W 1.98; P 3.61; N 3.01; Y 2.33; S 3.04; H 2.71; G 3.31; Q 3.14; E 2.78; M 2.33; I 2.01; V 2.29
Q3: F 2.46; A 2.31; K 2.37; I 2.35; V 2.34; P 2.75; M 2.41; L 2.49; N 3.25; W 1.71; H 2.13; C 2.02; R 2.57; T 2.76; D 3.09; E 2.89; Y 1.88; G 2.72; S 2.69
L5: D 4.16; W 2.62; V 3.24; T 3.51; A 3.72; R 3.83; M 2.99; S 4.1; G 4.49; F 2.45; Q 4.06; P 3.59; C 3.02; H 3.83; Y 2.19; I 2.38; E 3.94; K 3.75; N 4.26
K7: T 2.67; E 2.47; A 2.41; W 2.14; Q 2.43; M 2.48; H 2.73; R 2.5; G 3.14; N 2.86; L 2.37; D 2.76; F 1.9; C 2.63; P 3.88; Y 1.86; S 2.46; I 2.16; V 3.32
I8: A 3.06; E 4.17; D 4.13; G 4.54; F 1.64; C 3.37
D4: G 3.18; F 2.25; I 2.1; Q 2.42; P 2.68; H 3.03; L 1.72; C 1.64; E 2.5; S 2.38; N 2.6; M 1.99; V 1.61; K 1.98; W 2.04; A 2.13; R 2.68; T 1.76; Y 1.88
K1: G 2.83; N 2.6; R 2.62; L 2.88; C 2.51; P 3.03; A 2.58; F 3.1; E 2.41; I 2.91; H 2.58; S 2.58; Y 2.2; Q 2.9; D 2.05; M 2.81; V 2.71; W 2.28; T 2.58
S2: Q 2.46; P 2.43; R 2.56; F 1.84; M 2.04; C 2.14; I 2.11; Y 2.04; T 2.7; K 3.06; D 2.85; A 2.2; L 1.73; W 1.86; V 1.9; E 3.02; H 2.63; G 2.59; N 2.41

Variants of: B2
Assay: as above
Settings: c terminus: a fixed tail appended

Protein stability index: each site, then its substitutions
A22: V 3.23; K 3.95; P 3.77; I 3.37; Q 3.51; G 3.14; C 3.37; T 2.97; W 2.16; L 2.67; F 3.06; H 3.9; M 2.82; N 3.61; S 3.24; E 3.69; D 3.73; R 3.33; Y 2.23
L16: S 4.21; Q 4.06; R 3.4; Y 3.14; N 4.12; W 2.91; T 3.81; A 3.71; E 3.73; V 3.98; G 4; M 3.45; K 3.77; P 4.52; F 3.1; H 3.45; I 3.42; D 4.32; C 3.37
S20: T 2.86; G 3.66; P 3.91; M 3.24; Y 2.56; W 3.15; K 2.94; R 3.23; V 3.56; Q 3.54; C 3.21; I 2.15; E 2.36; A 3.81; L 3.37; D 3.67; F 3.17; N 3.54; H 3.04
N18: F 1.86; G 3.6; M 1.81; T 3.58; S 3.37; Q 2.93; I 2.47; H 2.96; C 2.17; R 3.15; D 3.81; V 1.76; Y 1.95; A 2.25; L 1.35; K 3.5; E 3.68; P 2.81; W 2.47
A15: V 2.34; D 4.2; H 3.37; F 2.86; Y 2.39; R 2.74; C 3.13; T 3.64; N 3.42; P 3.54; Q 3.59; G 3.58; L 2.63; M 3.27; W 2.46; I 2.59; E 3.14; S 3.66; K 2.98
R17: M 2.56; Y 2.58; C 2.84; Q 3.21; N 3.53; K 3.38; L 1.8; E 4.06; V 1.56; S 3.77; P 3.56; A 3.5; G 3.62; H 3.41; I 2.07; T 3.19; F 2.49; W 2.26; D 3.94
I14: W 3.29; Y 3.37; T 3.59; V 3.75; S 4.22
I19: L 3.05; P 3.9; C 4.27; Y 3.22; N 3.77; S 3.98; E 4.44; F 3; M 3.3; T 3.93; H 3.69; K 4.39; V 3.74; G 3.99; W 2.62; R 4.25; Q 4.44; A 3.71; D 4.54
G24: E 4.13; V 2.26; C 2.83; Q 3.49; A 3.4; D 4.08; F 2.49; I 2.42; T 3.43; M 2.95; R 3.46; L 2.04; H 3.3; S 3.31; P 3.09; W 2.39; N 3.06; Y 3.14; K 3.65
L21: N 4.08; P 4.11; M 3.68; T 4.23; K 4.37; V 3.5; W 3.08; H 4.07; Y 3.48; R 3.56; E 4.4; I 3.19; C 3.84; G 4.03; F 3.48; S 3.85; Q 3.65; A 4.15; D 4.8
K23: Q 3.09; P 3.44; L 2.95; N 3.48; W 2.22; Y 1.64; S 3.3; V 2.29; R 2.96; H 3.29; C 3.1; D 3.84; F 2.35; T 2.85; E 3.93; I 2.36; G 3.14; A 3.04; M 2.16
